{"source": "patent US5679639", "key": {"[1]": {"biological_target": "activated protein C (APC) (human)"}, "[2]": {"biological_target": "human activated Factor X (Xa) (human)"}, "[3]": {"biological_target": "human activated Factor X (Xa) (human)", "remark": "listed apart in the source"}, "[4]": {"biological_target": "Factor Va (activated Factor V)"}, "[5]": {"biological_target": "Factor Va (activated Factor V)", "remark": "listed apart in the source"}, "[6]": {"biological_target": "human activated Factor X (Xa) (human)", "remark": "listed apart in the source"}, "[7]": {"biological_target": "Factor Va (activated Factor V)", "remark": "listed apart in the source"}, "[8]": {"biological_target": "Factor Va (activated Factor V)", "remark": "listed apart in the source"}, "[9]": {"biological_target": "activated protein C (APC) (human)", "remark": "listed apart in the source"}, "[10]": {"biological_target": "activated protein C (APC) (human)", "remark": "listed apart in the source"}, "[11]": {"biological_target": "Factor IXa (Homo sapiens (Human))", "parameters": "unit not given beside the values"}, "[12]": {"biological_target": "Factor IXa (Homo sapiens (Human))"}, "[13]": {"biological_target": "Factor Va (activated Factor V)", "remark": "listed apart in the source"}, "[14]": {"biological_target": "activated protein C (APC) (human)", "remark": "listed apart in the source"}, "[15]": {"biological_target": "activated protein C (APC) (human)", "remark": "listed apart in the source"}}, "note": "Where two headings read alike, the source gives them in different places. No end group written: not given here.", "data": [{"molecule": "synthetic peptide PC48-62", "values": [{"measurement": "Inhibition of APC (%), Xa-1 stage coagulation assay in NHP, 500 µM peptide", "setting": "[1]", "value": 0, "unit": "%"}]}, {"molecule": "synthetic peptide PT463-478", "values": [{"measurement": "IC50, Factor Xa-1 stage clotting assay", "setting": "[2]", "value": "> 500", "unit": "µM"}]}, {"molecule": "synthetic peptide PT557-571", "values": [{"measurement": "IC50, Factor Xa-1 stage clotting assay", "setting": "[2]", "value": 50, "unit": "µM"}, {"measurement": "IC50, prothrombinase assay in the absence of Factor Va", "setting": "[3]", "value": 80, "unit": "µM"}, {"measurement": "IC50, prothrombinase assay in the presence of Factor Va", "setting": "[3]", "value": 40, "unit": "µM"}]}, {"molecule": "synthetic peptide PC65-79", "values": [{"measurement": "Inhibition of APC (%), Xa-1 stage coagulation assay in NHP, 500 µM peptide", "setting": "[1]", "value": 0, "unit": "%"}]}, {"molecule": "activated protein C (APC) (enzyme)", "values": [{"measurement": "rate of Factor Va inactivation (% Vi/min), 5 nM APC and 40 nM Va, no phospholipids", "setting": "[4]", "value": 4, "unit": "% Vi/min"}]}, {"molecule": "synthetic peptide PT473-487", "values": [{"measurement": "IC50, Factor Xa-1 stage clotting assay", "setting": "[2]", "value": 25, "unit": "µM"}, {"measurement": "IC50, prothrombinase assay in the presence of Factor Va (1 nM Xa, 0.4 nM Va, 1.2 uM prothrombin)", "setting": "[5]", "value": 10, "unit": "µM"}]}, {"molecule": "synthetic peptide PC110-124", "values": [{"measurement": "Inhibition of APC (%), Xa-1 stage coagulation assay in NHP, 500 µM peptide", "setting": "[1]", "value": 0, "unit": "%"}]}, {"molecule": "VKFTIRVFNPRNLKI-NH2", "note": "[control peptide with a randomized sequence of residues 311-325]", "values": [{"measurement": "Factor Xa clotting activity in NHP (0.15 nM factor Xa)", "setting": "[6]", "value": 30, "unit": "%"}]}, {"molecule": "GRPWKRMEKKRSHLC-NH2", "note": "[synthetic peptide PC142-155 with an additional carboxy-terminal cysteine]", "values": [{"measurement": "prothrombinase activity in the presence of Factor Va", "setting": "[7]", "value": 40, "unit": "µM"}, {"measurement": "Factor Xa clotting activity in NHP (0.15 nM factor Xa)", "setting": "[6]", "value": 10, "unit": "µM"}, {"measurement": "APC-catalyzed inactivation of Factor Va in the absence of phospholipids", "setting": "[8]", "value": 87, "unit": "%"}, {"measurement": "half-maximal inhibition of the APC-catalyzed inactivation of Factor Va, with phospholipid vesicles", "setting": "[8]", "value": 50, "unit": "µM"}, {"measurement": "50% inhibition of APC anticoagulant activity, Xa-1-stage coagulation assay in NHP", "setting": "[9]", "value": 25, "unit": "µM"}, {"measurement": "50% inhibition of APC anticoagulant activity, Xa-1-stage coagulation assay in protein S-depleted plasma", "setting": "[9]", "value": 5, "unit": "µM"}, {"measurement": "APC amidolytic activity towards S-2366, change in A405/5 minutes (none: 0.374) (A405/5 minutes)", "setting": "[10]", "value": 0.344}, {"measurement": "Inhibition of APC (%), Xa-1 stage coagulation assay in NHP, 500 µM peptide", "setting": "[1]", "value": 80, "unit": "%"}]}, {"molecule": "RSGWEGRFCQREVSF-NH2 (also: native Cys substituted by Ser or Gly, which position not given here)", "note": "[synthetic peptide PC81-95]", "values": [{"measurement": "Inhibition of APC (%), Xa-1 stage coagulation assay in NHP, 500 µM peptide", "setting": "[1]", "value": 40, "unit": "%"}]}, {"molecule": "KHVDGDQCLVLPLEH-NH2 (also: native Cys substituted by Ser or Gly, which position not given here)", "note": "[synthetic peptide PC43-57]", "values": [{"measurement": "Inhibition of APC (%), Xa-1 stage coagulation assay in NHP, 500 µM peptide", "setting": "[1]", "value": 0, "unit": "%"}]}, {"molecule": "QVVNLPIVERPVSKD-NH2 (not fully specified)", "note": "[synthetic peptide PT481-495]", "values": [{"measurement": "IC50, Factor Xa-1 stage clotting assay", "setting": "[2]", "value": "> 500", "unit": "µM"}]}, {"molecule": "YGIYTKVSRYVNWIK-NH2", "note": "[synthetic peptide IX395-409]", "values": [{"measurement": "IC50, Factor IXa-1 stage clotting assay", "setting": "[11]", "value": 25}, {"measurement": "IC50, tenase assay (Factor Xa generation) in the presence of Factor VIIIa", "setting": "[12]", "value": 6, "unit": "µM"}, {"measurement": "IC50, tenase assay in the absence of VIIIa", "setting": "[12]", "value": "40 to 60", "unit": "µM"}]}, {"molecule": "MHKLREGKWRPKSR-NH2", "note": "[scrambled peptide with a randomized sequence of residues 142-155]", "values": [{"measurement": "Factor Xa clotting activity in NHP (0.15 nM factor Xa)", "setting": "[6]", "value": 37, "unit": "%"}, {"measurement": "prothrombinase activity in the presence of Factor Va", "setting": "[13]", "value": 40, "unit": "%"}, {"measurement": "APC amidolytic activity towards S-2366, change in A405/5 minutes (none: 0.374) (A405/5 minutes)", "setting": "[10]", "value": 0.364}]}, {"molecule": "KLGDDLLQCHPAVKF-NH2 (also: native Cys substituted by Ser or Gly, which position not given here)", "note": "[synthetic peptide PC125-139]", "values": [{"measurement": "Inhibition of APC (%), Xa-1 stage coagulation assay in NHP, 500 µM peptide", "setting": "[1]", "value": 30, "unit": "%"}]}, {"molecule": "VLNFIKIPVVPHNEC-NH2", "note": "[synthetic peptide PC317-331]", "values": [{"measurement": "IC90** (concentration of peptide that inhibits 90% of APC anticoagulant activity), mean of APTT and Xa-1 stage coagulation assays in NHP", "setting": "[14]", "value": 500, "unit": "µM"}]}, {"molecule": "VTAFLKWIDRSMKTR-NH2", "note": "[synthetic peptide X415-429]", "values": [{"measurement": "IC50, Factor IXa-1 stage clotting assay", "setting": "[11]", "value": 0}, {"measurement": "IC50, Factor Xa-1 stage clotting assay", "setting": "[2]", "value": 115, "unit": "µM"}, {"measurement": "IC50, prothrombinase assay with or without Factor Va", "setting": "[3]", "value": 500, "unit": "µM"}, {"measurement": "IC50, tenase assay in the presence of VIIIa", "setting": "[12]", "value": 45, "unit": "µM"}]}, {"molecule": "KRNRTFVLNFIKIPV-NH2", "note": "[synthetic peptide PC311-325]", "values": [{"measurement": "APC-catalyzed inactivation of Factor Va in the absence of phospholipids", "setting": "[4]", "value": 87, "unit": "%"}, {"measurement": "half-maximal inhibition of the APC-catalyzed inactivation of Factor Va, with phospholipid vesicles", "setting": "[4]", "value": 6, "unit": "µM"}, {"measurement": "prothrombinase activity in the presence of Factor Va (1 nM Xa, 0.4 nM Va, 1.2 µM prothrombin)", "setting": "[7]", "value": 8, "unit": "µM"}, {"measurement": "Factor Xa clotting activity in NHP (0.15 nM factor Xa)", "setting": "[6]", "value": 7, "unit": "µM"}, {"measurement": "APC amidolytic activity towards S-2366, change in A405/5 minutes (none: 0.374) (A405/5 minutes)", "setting": "[10]", "value": 0.342}, {"measurement": "50% inhibition of APC anticoagulant activity in APTT and Xa-1-stage assays in NHP and PSDP", "setting": "[15]", "value": "7 to 20", "unit": "µM"}, {"measurement": "IC90** (concentration of peptide that inhibits 90% of APC anticoagulant activity), mean of APTT and Xa-1 stage coagulation assays in NHP", "setting": "[14]", "value": 50, "unit": "µM"}]}, {"molecule": "EKGRQSTRLKMLEVPY-NH2", "note": "[synthetic peptide X329-344]", "values": [{"measurement": "IC50, Factor Xa-1 stage clotting assay", "setting": "[2]", "value": 500, "unit": "µM"}]}, {"molecule": "HKGRSALVLQYLRVPL-NH2", "note": "[synthetic peptide IX315-330]", "values": [{"measurement": "IC50, Factor IXa-1 stage clotting assay", "setting": "[11]", "value": 30}, {"measurement": "IC50, tenase assay (Factor Xa generation) in the presence of Factor VIIIa", "setting": "[12]", "value": 2, "unit": "µM"}, {"measurement": "IC50, tenase assay in the absence of VIIIa", "setting": "[12]", "value": "40 to 60", "unit": "µM"}]}, {"molecule": "ARKGKYGIYTKVTAF-NH2", "note": "[synthetic peptide X404-418]", "values": [{"measurement": "IC50, Factor IXa-1 stage clotting assay", "setting": "[11]", "value": 50}, {"measurement": "IC50, Factor Xa-1 stage clotting assay", "setting": "[2]", "value": 50, "unit": "µM"}, {"measurement": "IC50, prothrombinase assay in the presence of Factor Va (1 nM Xa, 0.4 nM Va, 1.2 uM prothrombin)", "setting": "[5]", "value": 75, "unit": "µM"}, {"measurement": "IC50, tenase assay in the presence of VIIIa", "setting": "[12]", "value": 150, "unit": "µM"}]}, {"molecule": "APGYKLGDDLLQCHP-NH2 (also: native Cys substituted by Ser or Gly, which position not given here)", "note": "[synthetic peptide PC121-135]", "values": [{"measurement": "Inhibition of APC (%), Xa-1 stage coagulation assay in NHP, 500 µM peptide", "setting": "[1]", "value": 0, "unit": "%"}]}, {"molecule": "KVSRYVNWIKEKTKL-NH2", "note": "[synthetic peptide IX400-414]", "values": [{"measurement": "IC50, Factor IXa-1 stage clotting assay", "setting": "[11]", "value": 50}, {"measurement": "IC50, tenase assay in the presence of Factor VIIIa", "setting": "[12]", "value": "100 to 140", "unit": "µM"}]}, {"molecule": "DTLAFWSKHVDGDQC-NH2 (also: native Cys substituted by Ser or Gly, which position not given here)", "note": "[synthetic peptide PC36-50]", "values": [{"measurement": "Inhibition of APC (%), Xa-1 stage coagulation assay in NHP, 500 µM peptide", "setting": "[1]", "value": 0, "unit": "%"}]}, {"molecule": "HPAVKFPCGRPWKRM-NH2 (also: native Cys substituted by Ser or Gly, which position not given here)", "note": "[synthetic peptide PC134-148]", "values": [{"measurement": "50% inhibition of APC anticoagulant activity, Xa-1-stage assay in NHP", "setting": "[9]", "value": 250, "unit": "µM"}, {"measurement": "Inhibition of APC (%), Xa-1 stage coagulation assay in NHP, 500 µM peptide", "setting": "[1]", "value": 66, "unit": "%"}]}, {"molecule": "LVLQYLRVPLVDRAT-NH2", "note": "[synthetic peptide IX321-335]", "values": [{"measurement": "IC50, Factor IXa-1 stage clotting assay", "setting": "[11]", "value": 30}, {"measurement": "IC50, tenase assay in the presence of Factor VIIIa", "setting": "[12]", "value": "100 to 140", "unit": "µM"}]}]}
